One block for each sequence: values may come before it.
Tests used:
HLA-C*14:02 = experiment: IEDB peptide-MHC binding, purified MHC/direct/fluorescence; filed as Kd, often an IC50 or EC50 that approximates it; ≥ and ≤ were set here for values at or beyond the usual limits of such assays
HLA-B*07:02 [1] = experiment: IEDB peptide-MHC binding, purified MHC/competitive/fluorescence; filed as Kd, often an IC50 or EC50 that approximates it; ≥ and ≤ were set here for values at or beyond the usual limits of such assays; conditions: source organism: Yersinia pestis Antiqua
HLA-C*05:01 = experiment: IEDB peptide-MHC binding, purified MHC/direct/fluorescence; filed as Kd, often an IC50 or EC50 that approximates it; ≥ and ≤ were set here for values at or beyond the usual limits of such assays
HLA-B*07:02 [2] = experiment: IEDB peptide-MHC binding, purified MHC/competitive/radioactivity; filed as Kd, often an IC50 or EC50 that approximates it; ≥ and ≤ were set here for values at or beyond the usual limits of such assays; conditions: source organism: SARS coronavirus Tor2
HLA-B*35:01 [3] = experiment: as above; conditions: source organism: SARS coronavirus Tor2
HLA-B*51:01 = experiment: as above; conditions: source organism: SARS coronavirus Tor2
HLA-B*53:01 = experiment: as above; conditions: source organism: SARS coronavirus Tor2
HLA-B*54:01 = experiment: as above; conditions: source organism: SARS coronavirus Tor2
HLA-A*01:01 [4] = experiment: IEDB peptide-MHC binding, purified MHC/competitive/fluorescence; ≥ and ≤ were set here for values at or beyond the usual limits of such assays
HLA-A*02:01 [5] = experiment: as above; conditions: source organism: Zaire ebolavirus
HLA-C*08:02 = experiment: IEDB peptide-MHC binding, purified MHC/direct/fluorescence; filed as Kd, often an IC50 or EC50 that approximates it; ≥ and ≤ were set here for values at or beyond the usual limits of such assays
HLA-A*01:01 [6] = experiment: IEDB peptide-MHC binding, purified MHC/competitive/fluorescence; filed as Kd, often an IC50 or EC50 that approximates it; ≥ and ≤ were set here for values at or beyond the usual limits of such assays
HLA-B*35:01 [7] = experiment: as above
HLA-C*12:03 = experiment: IEDB peptide-MHC binding, purified MHC/direct/fluorescence; filed as Kd, often an IC50 or EC50 that approximates it; ≥ and ≤ were set here for values at or beyond the usual limits of such assays; conditions: source organism: Toxoplasma gondii RH
HLA-A*68:02 = experiment: IEDB peptide-MHC binding, purified MHC/competitive/fluorescence; filed as Kd, often an IC50 or EC50 that approximates it; ≥ and ≤ were set here for values at or beyond the usual limits of such assays; conditions: source organism: Toxoplasma gondii RH
HLA-B*40:01 [8] = experiment: as above
HLA-B*15:01 = experiment: as above
HLA-B*08:01 = experiment: as above; conditions: source organism: Escherichia coli
HLA-B*07:02 [9] = experiment: IEDB peptide-MHC binding, purified MHC/competitive/fluorescence; ≥ and ≤ were set here for values at or beyond the usual limits of such assays
HLA-B*58:01 [10] = experiment: IEDB peptide-MHC binding, purified MHC/competitive/fluorescence; filed as Kd, often an IC50 or EC50 that approximates it; ≥ and ≤ were set here for values at or beyond the usual limits of such assays
HLA-B*40:01 [11] = experiment: IEDB peptide-MHC binding, purified MHC/direct/fluorescence; filed as Kd, often an IC50 or EC50 that approximates it; ≥ and ≤ were set here for values at or beyond the usual limits of such assays
HLA-B*18:01 = experiment: as above
HLA-A*03:01 [12] = experiment: IEDB peptide-MHC binding, purified MHC/competitive/fluorescence; filed as Kd, often an IC50 or EC50 that approximates it; ≥ and ≤ were set here for values at or beyond the usual limits of such assays; conditions: source organism: Escherichia coli str. K-12 substr. MG1655
HLA-A*26:01 = experiment: as above; conditions: source organism: Escherichia coli str. K-12 substr. MG1655
HLA-A*03:01 [13] = experiment: IEDB peptide-MHC binding, purified MHC/competitive/fluorescence; ≥ and ≤ were set here for values at or beyond the usual limits of such assays; conditions: source organism: Sudan ebolavirus
HLA-A*11:01 [14] = experiment: as above; conditions: source organism: Sudan ebolavirus
HLA-B*58:01 [15] = experiment: IEDB peptide-MHC binding, purified MHC/direct/fluorescence; filed as Kd, often an IC50 or EC50 that approximates it; ≥ and ≤ were set here for values at or beyond the usual limits of such assays; conditions: source organism: Mycobacterium tuberculosis
HLA-B*27:05 = experiment: as above; conditions: source organism: Mycobacterium tuberculosis
HLA-B*46:01 = experiment: as above; conditions: source organism: Mycobacterium tuberculosis
HLA-A*01:01 [16] = experiment: as above; conditions: source organism: Mycobacterium tuberculosis
HLA-A*69:01 = experiment: as above; conditions: source organism: Mycobacterium tuberculosis
HLA-A*29:02 = experiment: as above; conditions: source organism: Mycobacterium tuberculosis
HLA-B*57:01 = experiment: as above; conditions: source organism: Mycobacterium tuberculosis
HLA-A*03:01 [17] = experiment: as above; conditions: source organism: Mycobacterium tuberculosis
HLA-A*11:01 [18] = experiment: as above; conditions: source organism: Mycobacterium tuberculosis
HLA-B*08:03 = experiment: as above; conditions: source organism: Mycobacterium tuberculosis str. Haarlem
HLA-A*02:01 [19] = experiment: as above; conditions: source organism: Mycobacterium tuberculosis
HLA-B*44:02 = experiment: as above; conditions: source organism: Mycobacterium tuberculosis
HLA-A*31:01 = experiment: as above; conditions: source organism: Mycobacterium tuberculosis
HLA-C*03:03 = experiment: as above; conditions: source organism: Mycobacterium tuberculosis C
[20] = source organism: Zaire ebolavirus
[21] = source organism: Salmonella enterica subsp. enterica serovar Typhi
[22] = source organism: Shigella flexneri 5 str. 8401
[23] = source organism: Alto Paraguay hantavirus
[24] = source organism: Escherichia coli str. K-12 substr. MG1655
[25] = source organism: Mycobacterium tuberculosis

Sequence: AKRYEKSAM
Kd (HLA-C*14:02; source organism: Yersinia pestis Antiqua): 1050 nM | Kd (HLA-B*07:02 [1]): ≥ 20000 nM

Sequence: APPPQRAAM
Kd (HLA-C*14:02; source organism: Mycobacterium tuberculosis variant bovis BCG str. Pasteur 1173P2): 61 nM

Sequence: APYMVGDVI
Kd (HLA-C*05:01; source organism: SARS-CoV1): ≥ 20000 nM | Kd (HLA-B*07:02 [2]): 139 nM | Kd (HLA-B*35:01 [3]): 11000 nM | Kd (HLA-B*51:01): 80 nM | Kd (HLA-B*53:01): 3580 nM | Kd (HLA-B*54:01): ≥ 27300 nM

Sequence: ASENSSAMV
IC50 (HLA-A*01:01 [4]; [20]): 43500 nM | IC50 (HLA-A*02:01 [5]): ≥ 147000 nM

Sequence: FAADKDSLY
Kd (HLA-C*08:02; source organism: Salmonella enterica subsp. enterica serovar Typhi str. CT18): ≥ 20000 nM | Kd (HLA-A*01:01 [6]; [21]): 313 nM | Kd (HLA-B*35:01 [7]; [21]): 0.2 nM

Sequence: FLDPHPYYV
Kd (HLA-C*12:03): 47 nM | Kd (HLA-C*05:01; source organism: Toxoplasma gondii RH): ≤ 1 nM | Kd (HLA-A*68:02): 56.3 nM

Sequence: GELESAIGL
Kd (HLA-B*40:01 [8]; [22]): 2.8 nM | Kd (HLA-B*15:01; [22]): ≥ 20000 nM

Kd (HLA-B*40:01 [8]; source organism: Escherichia coli): 4.8 nM | Kd (HLA-B*08:01): 175 nM
Sequence: HENARLRAL

Sequence: IEVTNATEL
Kd (HLA-B*40:01 [8]; source organism: Influenza A virus): 5.6 nM

Sequence: IPNSLHSLS
IC50 (HLA-B*07:02 [9]; source organism: Vaccinia virus Copenhagen): ≥ 136000 nM

Sequence: ISASLAALF
Kd (HLA-B*58:01 [10]; source organism: Bacillus anthracis str. A0488): 1.7 nM

Sequence: KEISNQEPL
Kd (HLA-B*40:01 [11]; [23]): 3.2 nM | Kd (HLA-C*14:02; source organism: Orthohantavirus dobravaense): 2070 nM | Kd (HLA-B*18:01; [23]): 357 nM

Kd (HLA-B*58:01 [10]; [24]): 418 nM | Kd (HLA-B*15:01; [24]): 247 nM | Kd (HLA-A*03:01 [12]): 2200 nM
Sequence: KVGITGFCY

Sequence: MENMLDLLM
Kd (HLA-B*40:01 [8]; source organism: Yersinia frederiksenii ATCC 33641): 10.2 nM

Kd (HLA-B*58:01 [10]; [24]): ≥ 20000 nM | Kd (HLA-A*01:01 [6]; [24]): 481 nM | Kd (HLA-B*35:01 [7]; [24]): 59.2 nM | Kd (HLA-A*26:01): ≥ 20000 nM | Kd (HLA-B*15:01; [24]): 84 nM | Kd (HLA-A*03:01 [12]): 42.2 nM
Sequence: RINEGWPAY

Sequence: STDIPSATK
IC50 (HLA-A*01:01 [4]; source organism: Sudan ebolavirus): ≥ 76400 nM | IC50 (HLA-A*03:01 [13]): 65600 nM | IC50 (HLA-A*11:01 [14]): 1470 nM

Sequence: VPSATKRWG
IC50 (HLA-B*07:02 [9]; [20]): 64600 nM

Sequence: WMRGRGRAL
Kd (HLA-B*40:01 [11]; [25]): ≥ 20000 nM | Kd (HLA-B*58:01 [15]): ≥ 20000 nM | Kd (HLA-B*27:05): ≥ 20000 nM | Kd (HLA-B*46:01): ≥ 20000 nM | Kd (HLA-A*01:01 [16]): ≥ 20000 nM | Kd (HLA-A*69:01): ≥ 20000 nM | Kd (HLA-A*29:02): ≥ 20000 nM | Kd (HLA-B*18:01; [25]): ≥ 20000 nM | Kd (HLA-B*57:01): ≥ 20000 nM | Kd (HLA-A*03:01 [17]): ≥ 20000 nM | Kd (HLA-A*11:01 [18]): ≥ 20000 nM | Kd (HLA-B*08:03): ≥ 20000 nM | Kd (HLA-A*02:01 [19]): ≥ 20000 nM | Kd (HLA-B*44:02): ≥ 20000 nM | Kd (HLA-A*31:01): ≥ 20000 nM

Sequence: YLPDPTVGV
Kd (HLA-C*08:02; source organism: Mycobacterium tuberculosis C): ≥ 20000 nM | Kd (HLA-C*03:03): ≥ 20000 nM
